From patent EP1486509A2, “Radiolabeled annexin-galactose cluster conjugates” (NEORX CORPORATION, priority 1994, dated 1996)

Experiments:
[1] = Blood clearance in the swine model; settings: in vivo
Excerpt: An animal model, as previously described in Example III, was employed to evaluate blood clearance of the molecules.

[2] = tested on: atrial thrombi and injured left atrium; parameters: species or system Yorkshire swine; settings: in vivo
Procedure: Image acquisition was performed as described below. […] A final blood sample was taken for well counting.
D. Sample Collection. […] Each vial was counted for 1 minute.
Well counting ratios were obtained for a variety of tissue samples. For the injured tissues and thrombi, multiple specimens were usually taken from the same animal. In those cases, the maximum ratio for any one specimen is reported, as well as the average of all specimens taken. The maximum for each animal was averaged across all animals and is reported as the Maximum Anx-V Ratio.

Substance: Tc-99m-annexin V: Annexin V radiolabeled with Tc-99m by a diamide dimercaptide N2S2 chelate (Example I)
- %ID/g a [1]: %ID/g a = 0.0389
- %ID/g b [1]: %ID/g b = 0.0300
- highest non-target localization [2]: kidney
